± gives the standard deviation of the averaged measurements.
Tested on: ATP
Test: switch fluorescence ratio, 500 uM ATP over buffer (Cy3 cluster intensity, sum of 5 cycles each) (fold (ratio)); higher = stronger signal-on switching upon ATP binding; sequences stand for … in TCGTCGGCAGCGTCAGATGTGTATAAGAGACAGTTTTTTTTTTTTTTTTTTTTTTTTT…TC
Conditions: aptamer strand: ATP DNA aptamer (quencher-CACCTGGGGGAGTATTGCGGAGGAAGG + anchor), 100 nM annealed; ATP concentration: 500 uM
Method in brief: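 Exposure to 500 uM ATP lasted 15 min at 22 °C before imaging, and a selection-buffer image was taken beforehand, for Cy3-labelled switching-strand clusters on a modified Illumina MiSeq flow-cell annealed to 100 nM quencher-labelled ATP aptamer. Five buffer/ATP cycles were run with NaOH stripping and re-annealing between them. The fluorescence ratio per cluster is summed target-cycle over summed buffer-cycle Cy3 intensity, averaged per switch-domain sequence. Clusters outside 100-1000 RFU were excluded.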

Row | Sequence | switch fluorescence ratio
1 | TATAAAGAGG | 0.987 ± 0.038
2 | TATAAAGGGT | 1.02 ± 0.055
3 | TATAAAGTTT | 1.01 ± 0.0081
4 | TATAAATGGG | 1 ± 0.0042
5 | TATAACATGT | 0.997 ± 0.026
6 | TATAACGCTT | 1.01 ± 0.017
7 | TATAACTTGA | 1.02 ± 0.0048
8 | TATAAGAGCG | 1.004 ± 0.0065
9 | TATAAGGATG | 0.993 ± 0.019
10 | TATAAGTCAC | 1.146 ± 0.011
11 | TATAATAGTT | 0.965 ± 0.037
12 | TATAATCGA | 1.03 ± 0.067
13 | TATAATGCGC | 0.995 ± 0.034
14 | TATAATGGCG | 0.961 ± 0.04
15 | TATAATTGCC | 0.991 ± 0.0076
16 | TATAATTTCT | 1.04 ± 0.018
17 | TATACATCTG | 1.0055 ± 0.00054
18 | TATACGAAGA | 1.08 ± 0.045
19 | TATACGGGAT | 1.06 ± 0.043
20 | TATACGGGGA | 1.01 ± 0.021
21 | TATACGGTTA | 1.06 ± 0.022
22 | TATACTAGTT | 1.04 ± 0.033
23 | TATACTCCTG | 1.16 ± 0.041
24 | TATACTTAGT | 1.025 ± 0.0036
25 | TATAGAAAAT | 1.03 ± 0.026
26 | TATAGAAGCG | 1.01 ± 0.021

Row | Sequence | switch fluorescence ratio
27 | TATAGAAGT | 1.002 ± 0.0015
28 | TATAGAGTAA | 1.02 ± 0.034
29 | TATAGAGTTT | 1.01 ± 0.023
30 | TATAGCCTAG | 0.99 ± 0.027
31 | TATAGGATGG | 0.98 ± 0.028
32 | TATAGGCAGG | 0.9772 ± 0.008
33 | TATAGGCCTC | 1.001 ± 0.0064
34 | TATAGGGTTT | 1.07 ± 0.12
35 | TATAGGTTGG | 1.02 ± 0.031
36 | TATAGTCTTT | 0.983 ± 0.015
37 | TATATAGGGG | 1 ± 0.026
38 | TATATATGAA | 1.01 ± 0.015
39 | TATATCTATA | 1.02 ± 0.015
40 | TATATGCCTT | 1.01 ± 0.036
41 | TATATGCGTG | 0.9932 ± 0.0039
42 | TATATTACAG | 1.05 ± 0.028
43 | TATATTATGA | 0.999 ± 0.023
44 | TATATTTTTC | 1.15 ± 0.24
45 | TATCAAAGGG | 1.023 ± 0.0067
46 | TATCAAAGGT | 1.01 ± 0.025
47 | TATCACACTG | 1.09 ± 0.12
48 | TATCACGGCG | 0.998 ± 0.013
49 | TATCACGGCT | 0.969 ± 0.0099
50 | TATCACTGTT | 1.05 ± 0.079
51 | TATCAGAAGC | 1.012 ± 0.01
52 | TATCAGAGGT | 1.03 ± 0.036

Row | Sequence | switch fluorescence ratio
53 | TATCAGATTA | 0.998 ± 0.033
54 | TATCAGCTGA | 0.9974 ± 0.0036
55 | TATCAGGGG | 1.11 ± 0.054
56 | TATCAGTAGT | 1.016 ± 0.0028
57 | TATCAGTGAT | 1.02 ± 0.071
58 | TATCATAGCG | 1.01 ± 0.046
59 | TATCATGGGG | 0.996 ± 0.031
60 | TATCCCCCGG | 1.95 ± 1.2
61 | TATCCGAACG | 1.4467 ± 0.00019
62 | TATCCGGGTG | 3.23 ± 0.25
63 | TATCCTGGCG | 1.03 ± 0.057
64 | TATCGAAGGC | 0.982 ± 0.022
65 | TATCGCTGGT | 1.04 ± 0.023
66 | TATCGGATGG | 1.0207 ± 0.00094
67 | TATCGGGGTG | 0.996 ± 0.053
68 | TATCGGGGTT | 0.98 ± 0.046
69 | TATCGGGTGG | 1.01 ± 0.097
70 | TATCGGTATT | 1 ± 0.039
71 | TATCGGTCCG | 1.01 ± 0.024
72 | TATCTATCAT | 0.969 ± 0.024
73 | TATCTATTTT | 0.964 ± 0.011
74 | TATCTCCAAT | 1.12 ± 0.052
75 | TATCTCGGGA | 0.988 ± 0.02
76 | TATCTGAACG | 1.01 ± 0.037
77 | TATCTGCTAC | 3.67 ± 0.7
78 | TATCTGGGTG | 1.06 ± 0.029

Row | Sequence | switch fluorescence ratio
79 | TATCTGGGTT | 1.06 ± 0.079
80 | TATCTTTTCT | 0.968 ± 0.014
81 | TATGAAACCG | 1.02 ± 0.086
82 | TATGACGCGG | 0.9833 ± 0.0053
83 | TATGAGAGCC | 1.02 ± 0.026
84 | TATGAGGGCA | 1.02 ± 0.013
85 | TATGAGGGCG | 1.04 ± 0.041
86 | TATGAGGGGC | 0.967 ± 0.013
87 | TATGAGGTCT | 1.02 ± 0.032
88 | TATGATAGCC | 1.04 ± 0.037
89 | TATGATAGGT | 0.9914 ± 0.0013
90 | TATGATGGGC | 0.9577 ± 0.0057
91 | TATGATTACG | 1.03 ± 0.013
92 | TATGATTTGC | 1 ± 0.012
93 | TATGCACTGA | 1.06 ± 0.024
94 | TATGCATTGT | 1.01 ± 0.017
95 | TATGCATTTC | 1.08 ± 0.0049
96 | TATGCGAGAC | 2.3 ± 0.15
97 | TATGCGTTTT | 0.98 ± 0.013
98 | TATGCTTATT | 1 ± 0.024
99 | TATGCTTTGG | 0.98 ± 0.03
100 | TATGGAGTGG | 1 ± 0.039
101 | TATGGATGGC | 1.01 ± 0.058
102 | TATGGATTAT | 1.02 ± 0.081
103 | TATGGCCTGG | 1.04 ± 0.015
104 | TATGGGAGGG | 0.952 ± 0.022

Row | Sequence | switch fluorescence ratio
105 | TATGGGAGGT | 1.04 ± 0.029
106 | TATGGGCAGC | 1.03 ± 0.018
107 | TATGGGCATT | 0.998 ± 0.016
108 | TATGGGCGCG | 1.11 ± 0.23
109 | TATGGGGTTT | 1.01 ± 0.031
110 | TATGGGTGAT | 1.01 ± 0.034
111 | TATGGGTGTG | 1.02 ± 0.037
112 | TATGGGTTTT | 1.02 ± 0.037
113 | TATGGTGAGC | 1.01 ± 0.023
114 | TATGGTTAAT | 0.982 ± 0.016
115 | TATGTAAGGA | 0.985 ± 0.041
116 | TATGTAATGT | 0.993 ± 0.031
117 | TATGTACACA | 1.02 ± 0.059
118 | TATGTACGGG | 1.0612 ± 0.00037
119 | TATGTACTAG | 1.049 ± 0.0089
120 | TATGTAGATT | 1.017 ± 0.01
121 | TATGTAGTAG | 0.971 ± 0.042
122 | TATGTAGTCG | 1.02 ± 0.038
123 | TATGTATATA | 1.01 ± 0.079
124 | TATGTATCTA | 1.02 ± 0.043
125 | TATGTATTAT | 0.994 ± 0.062
126 | TATGTCATGT | 1.02 ± 0.011
127 | TATGTCATTT | 0.957 ± 0.011
128 | TATGTCCAGT | 1.0009 ± 0.00027
129 | TATGTCTCTT | 1.02 ± 0.021
130 | TATGTCTTTA | 1 ± 0.017

Row | Sequence | switch fluorescence ratio
131 | TATGTGAGCA | 0.99 ± 0.014
132 | TATGTGGCT | 1.017 ± 0.0043
133 | TATGTGGGAA | 1.01 ± 0.062
134 | TATGTGGTTG | 0.99 ± 0.016
135 | TATGTGTCAG | 0.977 ± 0.012
136 | TATGTGTGAT | 0.996 ± 0.013
137 | TATGTGTGGG | 1.01 ± 0.026
138 | TATGTGTTGG | 0.992 ± 0.025
139 | TATGTTAGAT | 1.002 ± 0.01
140 | TATGTTAGTC | 0.988 ± 0.054
141 | TATGTTGCAA | 1.01 ± 0.025
142 | TATGTTGGAT | 0.988 ± 0.012
143 | TATGTTTATT | 1.03 ± 0.011
144 | TATGTTTCCT | 1.02 ± 0.037
145 | TATGTTTCGT | 1.01 ± 0.041
146 | TATGTTTGAA | 0.984 ± 0.015
147 | TATTAACCTT | 1.6415 ± 0.00013
148 | TATTAAGCAG | 1.07 ± 0.038
149 | TATTAAGTAT | 1.01 ± 0.019
150 | TATTAATGTG | 0.974 ± 0.042
151 | TATTACACAT | 1.01 ± 0.04
152 | TATTAGAGGT | 0.997 ± 0.019
153 | TATTAGATTC | 0.9656 ± 0.0023

— the supplement of paper PMC10126150
